From US9611303B2, “Modified biotin-binding protein” (Japan Tobacco Inc., priority 2009, dated 2017)

Assays:
[1] = Purification of LATM2 with biotin-agarose; type: binding
Protocol: Purification with biotin-agarose (manufactured by Sigma-Aldrich Corp.) was performed by the following procedure. After induced expression of 25 mL of a culture solution of E. coli for each LATM2, the E. coli cells were suspended in 1.5 mL of a 100 mM potassium phosphate buffer (pH 7.0), and then sonicated. To the supernatant of the disrupted cells. 400 μL of biotin-agarose was added, which was followed by upside-down mixing for 1 hr. […]
In TM2 S36A-T78A-D116A, the E. coli cells were suspended in 1.5 mL of 50 mM CAPS (pH 12) containing 50 mM NaCl, and then sonicated. To the disrupted cells, 400 μL of biotin-agarose was added, which was followed by upside-down mixing for 1 hr. The column was sufficiently washed with 50 mM CAPS (pH 12) containing 500 mM NaCl, and elution was then performed with 1 mL of PBS (pH 7.4) containing 10 mM biotin.
In TM2 S36A-D116A, the E. coli cells were suspended in 1.5 mL of a 100 mM potassium phosphate buffer (pH 4.0), and then sonicated. To the pupernatant of the disrupted cells, 400 μL of biotin-agarose was added. Washing was performed with a 100 mM potassium phosphate buffer (pH 4) containing 500 mM NaCl, and elution was performed with 1 mL of PBS (pH 7) containing 10 mM biotin. Biotin binding to LATM2 that has been eluted with an excess amount of biotin was removed by dialysis with a 20 mM potassium phosphate buffer overnight.
(§1) The recovery rate in Table 2 was calculated by dividing the amount of LATM2 protein after purification by the amount of LATM2 protein before purification and was expressed by percent by multiplying the quotient by 100. The degree of purification was the ratio of the amount of LATM2 protein to the total amount of proteins in the purified fraction and was expressed by percent by multiplying the ratio by 100. The recovery rates and the degrees of purification in biotin-agarose were the results after binding at pH 7 and elution with an excess amount of biotin.

Proteinase K = assay: Protease resistance of LATM2 (SDS-PAGE); details: 5 μM Proteinase K, 30° C., 15 min, presence or absence of biotin
Protocol: Throughout the specification, “having protease resistance” refers to that a protein is not enzymatically decomposed or not substantially decomposed by protease treatment. The protease treatment is performed by, for example, proteinase K treatment at 30° C. for 15 min. The term “not enzymatically decomposed” refers to that bands of a tetramer, dimer, and/or monomer of the protein can be clearly detected by SDS-PAGE after enzyme treatment, as in wild-type TM2. That is, a protein not having protease resistance is decomposed into small molecules by protease treatment, and bands of the tetramer, dimer, and monomer are not detected by SDS-PAGE after the protease treatment. […] Accordingly, bands of the tetramer and/or the dimer or monomer generated by dissociation of the tetramer are detected by SDS-PAGE. […] of each of the LATM2s (TM2 S36A, TM2 […], TM2 […], TM2 […], TM2 […], TM2 S36A-[…], TM2 […], and […]) purified by biotin-agarose was subjected to a reaction in 50 mM Tris-HCl (pH 8.0) containing 5 μM Proteinase K and 5 mM CaCl2 at 30° C. for 15 min. […] Then, an SDS buffer was added to each reaction solution, followed by heat treatment at 95° C. for 10 min to terminate the reaction. The resulting sample was subjected to SDS-PAGE, followed by CBB staining.

[2] = Purification of LATM2 with 2-iminobiotin-agarose; type: binding; details: for Recovery rate (%): Iminobiotin-agarose, binding at pH 12, elution with 50 mM NH4OAC (pH 4)
Protocol: LATM2 was purified through a column charged with 2-iminobiotin-agarose (manufactured by Sigma-Aldrich Corp.) in accordance with the method by Hofmann, et al., (1980). IPTG was added to 25 mL of a culture solution of E. coli transformed with each LATM2 in a final concentration of 1 mM to induce expression. The E. coli cells were collected by centrifugation, suspended in 1.5 mL of 50 mM CAPS (pH 12) containing 50 mM NaCl, and then sonicated. To the supernatant of the disrupted cells, 500 μL of 2-iminobiotin-agarose was added, which was then packed in a column. The column was sufficiently washed with 50 mM CAPS (pH 12) containing 500 mM NaCl, and elution was then performed with 50 mM NH4OAC (pH 4).
as §1

[3] = Heat resistance of LATM2 by SDS-PAGE; type: physicochemical; details: absence of biotin, 20 min in SDS sample buffer
Protocol: The heat resistance of LATM2s was investigated by SDS-PAGE. Each protein was heat treated at predetermined temperatures for 20 min in an SDS sample buffer in the presence or absence of biotin and was then subjected to SDS-PAGE, followed by CBB staining. The heating temperatures in a biotin-free experimental system were 80° C., 82° C., 84° C., 86° C., 88° C., 90° C., 92° C., and 94° C., and heating temperatures in a biotin-containing experimental system were 86° C., 88° C., 90° C., 92° C., 96° C., 98° C., and 100° C.

[4] = Subunit association by FPLC on Sephacryl S-100HR; type: physicochemical; details: for Structure (identified by FPLC): Sephacryl S-100HR, 50 mM potassium phosphate, 500 mM NaCl; for Sephacryl (mL), elution peak position: tetramer 44 to 47 mL, dimer 51 to 54 mL, monomer 63 to 66 mL
Protocol: In order to analyze the subunit association conditions of LATM2, the molecular weight of each LATM2s was measured by FPLC. Sephacryl S-100HR (manufactured by GE Healthcare) was used as a column, a Gel Filtration Calibration Kit LMW (manufactured by GE Healthcare) was used as molecular weight markers, and 50 mM potassium phosphate containing 500 mM NaCl was used as a buffer.
The positions of the peaks of eluted tetramer were defined to be 44 to 47 mL after injection of WT-TM2 as a control. The peak of an eluted monomer appeared at around 63 to 66 mL and the peak of an eluted dimer appeared at around 51 to 54 mL, from result of loading the molecular weight markers.

[5] = pH-dependence of binding to biotin-agarose
Protocol: E. coli cells were collected from 25 mL of an E. coli culture solution in which expression TM2 S36A-D116A was induced with 1 mM IPTG, were suspended in 1.5 mL of a 100 mM potassium phosphate buffer ([…]) or 1.5 mL of a 50 mM CAPS (pH 12.0), and then were sonicated. The disrupted cells were centrifugated, and 400 μL of biotin-agarose was added to the supernatant. […] Furthermore, the TM2 S36A-D116A protein was dissociated from the carrier by increasing the pH of the reaction solution to 7.0 or 12.0 and was recovered at an efficiency of 95%.
TM2 S36A-T78A-D116A was also investigated for its pH-dependence. The protein was suspended in a buffer of pH 4.0 or pH 12.0 and was sonicated. […] By utilizing this property, high purity TM2 S36A-T78A-D116A was obtained by binding the protein to biotin-agarose at pH 4.0 and eluting it at pH 7.0 (FIG. 3B).

[6] = Biotin-binding ability of TM2 D40N
[7] = Biotin-agarose, binding at pH 7, recovery with 10 mM biotin

| recovery rate by binding at pH 4 or 12, elution at pH 7 (without biotin) ([1]; Biotin-agarose) | binding to 2-iminobiotin-agarose [2] | binding to biotin-agarose ([5]; pH 4.0 or pH 12.0) | binding to biotin-agarose ([5]; pH 7.0) | biotin-binding ability relative to TM2 [6] | binding to biotin-agarose [1] | Molecule | Recover rate (%) [1, 7] | Recover rate (%) ([1]; Biotin-agarose, binding at pH 7, recovery with 10 mM biotin, listed as T78A) | decomposition by Proteinase K (Proteinase K) | Recovery rate (%) [2] [%] | recovery rates compared with WT ([2]; purification with 2-iminobiotin-agarose) | Tr value (temperature at which ratio monomer:tetramer becomes 1:1) [3] [°C] | Structure (identified by FPLC) [4] | Structure (identified by FPLC) ([4]; listed as T78A) | Sephacryl (mL), elution peak position [4] [mL] | Structure (identified by FPLC) ([4]; listed as S36AT78AD116A) | elution from biotin-agarose with an excess amount of biotin [1] | Note (Biotin-agarose) ([1]; binding at pH 7, recovery with 10 mM biotin, FT = flow-through) |
| --- | --- | --- | --- | --- | --- | --- | --- | --- | --- | --- | --- | --- | --- | --- | --- | --- | --- | --- |
| – | – | – | – | – | – | TM2 T78A: TM2 in which the 78th threonine was replaced with alanine; SEQ ID NO: 10 (protein, Synthetic TM2 T78A) MSDVQSSLTGTWYNELNSKMELTANKDGTLTGKYLSKVGDVYVPYPLSGRYNLQPPAGQGVALGWAVSWENSKIHSAATWSGQFFSESSPVILTQWLLSSSTARGDVWESTLVGNDSFTKTAPTEQQIAHAQLHCRAPRLK | about 95% | 95 | hardly decomposed | 10 | inferior to WT | 88 | tetramer | Tetramer | 45.71 | – | – | – |
| recovery rate: 95% | did not bind | confirm its binding to biotin-agarose | did not bind to biotin-agarose at all | – | – | TM2 S36A-T78A-D116A: TM2 with 36th serine, 78th threonine and 116th aspartic acid replaced with alanine; SEQ ID NO: 8 (protein, Synthetic TM2 S36A-T78A-D116A) MSDVQSSLTGTWYNELNSKMELTANKDGTLTGKYLAKVGDVYVPYPLSGRYNLQPPAGQGVALGWAVSWENSKIHSAATWSGQFFSESSPVILTQWLLSSSTARGDVWESTLVGNASFTKTAPTEQQIAHAQLHCRAPRLK | 0% | – | hardly decomposed | 0 | – | – | dimer | – | 51.06 | Dimer | – | – |
| – | – | – | – | increases | – | TM2 D40N: TM2 having modification of the 40th aspartic acid to asparagine (protein) MSDVQSSLTGTWYNELNSKMELTANKDGTLTGKYLSKVGNVYVPYPLSGRYNLQPPAGQGVALGWAVSWENSKIHSATTWSGQFFSESSPVILTQWLLSSSTARGDVWESTLVGNDSFTKTAPTEQQIAHAQLHCRAPRLK | – | – | – | – | – | – | – | – | – | – | – | – |
| – | – | – | – | – | efficiently adsorbs to biotin-agarose | WT-TM2: wild-type tamavidin 2, protein comprising the amino acid sequence SEQ ID NO: 2, from Pleurotus cornucopiae (protein, listed as Pleurotus cornucopiae) MSDVQSSLTGTWYNELNSKMELTANKDGTLTGKYLSKVGDVYVPYPLSGRYNLQPPAGQGVALGWAVSWENSKIHSATTWSGQFFSESSPVILTQWLLSSSTARGDVWESTLVGNDSFTKTAPTEQQIAHAQLHCRAPRLK | 0% | – | hardly decomposed | 95 | – | 78 | Tetramer | – | 46.23 | – | not eluted | not eluted |
